Measurements: patent US20070148191A1

Target: CDw52 antigen (CAMPATH-1 antigen) (human) (UniProt P31358)
Assay: cell-based or functional assay

lysis in 51Cr release assay (ADCC) of SaOS-2 osteosarcoma cells with LAK effector cells, after 18 h: 45%
Substance: CAMPATH (antibody)
